This is an account of results in patent US20110239317A1 (Johns Hopkins, published 2011).

Test [1] deals with GDF-8 receptor (cell surface binding proteins on L6 and G-8 myoblasts). As to the kind of experiment: receptor-ligand binding assay with I-125 GDF-8 on L6 myoblasts.
The target is the same in test [2]. Briefly: receptor-ligand binding assay with I-125 GDF-8 on myoblasts.
The target of test [3] is T1, mature C-terminal myostatin peptide (disulfide-linked C-terminal dimer), purified from CHO cell conditioned … (UniProt O14793 24-375, limits assumed, radio-iodinated (on tyrosine, residues not stated) in the receptor binding assay).
T1 construct: mature; also called GDF-8; mature C-terminal peptide
T1 sequence (looked up): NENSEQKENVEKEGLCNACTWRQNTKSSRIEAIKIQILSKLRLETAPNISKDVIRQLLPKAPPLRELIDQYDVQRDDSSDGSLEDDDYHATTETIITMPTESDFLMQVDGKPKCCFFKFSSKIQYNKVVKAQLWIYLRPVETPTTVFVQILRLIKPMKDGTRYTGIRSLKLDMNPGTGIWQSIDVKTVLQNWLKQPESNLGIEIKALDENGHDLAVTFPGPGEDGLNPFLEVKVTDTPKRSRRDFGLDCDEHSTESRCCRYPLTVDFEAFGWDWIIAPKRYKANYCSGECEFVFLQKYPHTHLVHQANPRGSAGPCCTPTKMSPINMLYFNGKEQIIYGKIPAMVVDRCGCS
As to the kind of experiment: radio-iodinated myostatin on COS cells transfected with Act RIIB, Scatchard analysis.

What is called Kd is the constant that tells how readily two partners part at equilibrium. In turn, “recombinant human GDF-8 (rhGDF-8) homodimer (from UniProt O14793 267-374) (ligand)” showed a receptors/cell (receptors/cell) in test [1] of 5000. Besides, the Kd in test [2] stood at 0.37 nM.

B1: activin type IIB receptor (Act RIIB) expressed on transfected COS cells (receptor)
chain: SGRGEAETRECIYYNANWELERTNQSGLERCEGEQDKRLHCYASWRNSSGTIELVKKGCWLDDFNCYDRQECVATEENPQVYFCCCEGNFCNERFTHLPEAGGPEVTYEPPPTAPTLLTVLAYSLLPIGGLSLIVLLAFWMYRHRKPPYGHVDIHEDPGPPPPSPLVGLKPLQLLEIKARGRFGCVWKAQLMNDFVAVKIFPLQDKQSWQSEREIFSTPGMKHENLLQFIAAEKRGSNLEVELWLITAFHDKGSLTDYLKGNIITWNELCHVAETMSRGLSYLHEDVPWCRGEGHKPSIAHRDFKSKNVLLKSDLTAVLADFGLAVRFEPGKPPGDTHGQVGTRRYMAPEVLEGAINFQRDAFLRIDMYAMGLVLWELVSRCKAADGPVDEYMLPFEEEIGQHPSLEELQEVVVHKKMRPTIKDHWLKHPGLAQLCVTIEECWDHDAEARLSAGCVEERVSLIRRSVNGTTSDCLVSLVTSVTNVDLPPKESSI
Regarding B1, the Kd in test [3] was ~5 nM.
